Assay results as given in patent US20250042994A1 (HAINAN SIMCERE ZAIMING PHARMACEUTICAL, published 2025).
Where a chain is given by its changes, count along the chain named.

B1: F5.7.1 (antibody, human IgG1, V domains shown)
VH: QVTLKESGPGILQPSQTLSLTCSFSGFSLTTFGMGVGWIRQPSGKGLEWLTHIWWDDDKYYNPALKSRLTISKDTSKNQVFLRIANVDTADTATYYCARVITTGVPYFDYWGQGTTLTVSS
VL: ENVLTQSPAIMSASPGEKVTMTCRASSSVSSSYLYWYQQKSGASPKLWISSTSNLASGVPARFSGSGSGTSYSLTINSVEAEDAATYYCQQYSGYPWTFGGGTKLEIK
notes: human-murine chimeric antibody, human IgG1
B2: F6.5.20 (antibody, human IgG1, V domains shown)
VH: QVQLQQPGAELVKPGASVKLSCKASGYTFTSYWMQWVKQRPGQGLEWIGEIDPSDSYTNYNQKFKGKASLTVDTSSSTAYMQLSSLTSEDSAVYYCARWGLLRNYYVMDYWGQGTSVTVSS
VL: EIVLTQSPTTMAASPGEKITITCSASSSISSNYLHWYQQKPGFSPKLLIYRTSNLASGVPARFSGSGSGTSYSLTIGTMEAEDVATYYCQQGSSIPRMLTFGAGTKLELK
notes: as for B1
B3: F4.145.9 (antibody, human IgG1, V domains shown)
VH: EVQLVESGGGLVKPGGSLKLSCAAAGFAFSSYDMSWVRQIPEKRLEWVAYISAGGGNTYFLDTVKGRFTISRDHAKNTLSLQMSSLKSEDTAMYFCVRHGDYYRYFYAMDYWGQGSSVTVSS
VL: DIVMTQSHKFMSTSVGDRVSITCKASQDVGTAVAWSQQKPGQSPKLLIYWASTRHTGVPDRFTGSGSGTDFTLTISNVQSEDLADYFCQQFVTYPYTFGGGTKLEIK
notes: as for B1
B4: F4.125.12 (antibody, human IgG1, V domains shown)
VH: EVKLVESGGGLVQPGGSLKLSCAASGFTFSTYTMSWVRQTPEKRLEWVAFISSGGGHINYPDTVKGRFTISRDNAKNTLYLQMSSLKSEDTAMYYCARHSYWFFDVWGAGTTVTVSS
VL: DVQITQSPSYLAASPGETITINCRASKNIDTYLAWYQEKPGKTNKLLIYSGSTLQSGIPSRFRGGGSGTDFTLTICSLEPEDFAMYYCQQHNEYPLTFGAGTKLELK
notes: as for B1
B5: F4.180.1 (antibody, human IgG1, V domains shown)
VH: EVQLQQSAPELVKPGASVKMSCKTSGYTFTENIIHWVKQTHGKSLEWIGGINPDNGGTSYHQKFKGRTTLTIDKSSSTAYMELRSLTSDDSAVFFCARQAPLYWYFDIWGAGTTVTVSS
VL: DIVLTQSPASLAVSLGQRATISCRASESVDSYGNSLMHWFQQKPGQPPRLLIYRASNLESGIPARFSGSGSRTDFTLTITPVEADDVATYYCQQSNEDPWTFGGGTKLEIK
notes: as for B1
B6: F6.2.9 (antibody, human IgG1, V domains shown)
VH: QVQLQQSGAELVKPGASVKISCKASGYAFSSYWMNWVKQRPGKGLEWIGQIYPGDGDTNYNGKFKGKATLTADKSSSTGYMQLSSLTSEDSAVYFCARSRITSVVDWYFDVWGTGTTVTVSS
VL: QIVLSQSPAILSASPGEKVTMTCRASSSVSYMHWYQQKPGSSPKPWIYATSNLASGVPARFSGSGSGTSYSLTISRVEAEDAATYYCQQWSSNPPTFGAGTKLELK
notes: as for B1
B7: F4.15.9 (antibody, human IgG1, V domains shown)
VH: QVQLQQSGPELVKPGASVKISCKASGYAFSSSWMNWLKQRPGQGLEWIGRIYPGDGDTNYNGKFKGKATLTADESSSTAYMQLSSLTSVDSAVYFCARGITTIITIAWFASWGQGTLVTVSA
VL: B6 VL with A9T, A59P, E78G, N93D, P95W, A99G, L105I
notes: as for B1
B8: F3.23.10 (antibody, human IgG1, V domains shown)
VH: EFQLQQSGPELVKPGASVKISCKASDYSFTDYNMNWVKQSNGASLEWIGIINPNFGSTSYNQKFKGKATLTVDQSSSTAFMQLNSLTSEDSAVYYCARSEYYGSSGFAYWGQGTLVTVSA
VL: DVVVTQTPLSLPVSFGDQVSISCRSSQSLVNSYGNTYLSWYLHKPGQSPQLLIYGISNRFSGVPDRFSGSGSGTDFTLKITTIKPEDLGMYYCLQGTHQPWTFGGGTKLEIK
notes: as for B1
B9: F5.11.2 (antibody, human IgG1, V domains shown)
VH: EVQLVESGGDLVKPGGSLKLSCAASGFTFSSYGMSWVRQTPDKRLEWVATISHGGSYTHYPDSVKGRFTISRDNAKNTLYLQMNSLKSEDTAMYYCVRLPITTVEAPYFFDYWGQGTTLTVSS
VL: DIQMTQTTSSLSASLGDRVTISCRASQDIRNYLNWYQQKPDGTVKLLIYYTSILHSGVPSRFSGSGSGTDYSLTINNLEQEDVATYFCQQGNTLYTFGGGTEVELR
notes: human-murine chimeric antibody, human IgG1 constant
B10: F3.23.10 (antibody, human IgG1, V domains shown)
VH: B8 VH
VL: B8 VL
notes: as for B9

Molecular target: T1, human CD19 on CHO-K1-human CD19 cells (human, UniProt P15391 20-556)
T1 construct: whole, on cells; also called CHO-K1-human CD19-2C8
T1 sequence (looked up): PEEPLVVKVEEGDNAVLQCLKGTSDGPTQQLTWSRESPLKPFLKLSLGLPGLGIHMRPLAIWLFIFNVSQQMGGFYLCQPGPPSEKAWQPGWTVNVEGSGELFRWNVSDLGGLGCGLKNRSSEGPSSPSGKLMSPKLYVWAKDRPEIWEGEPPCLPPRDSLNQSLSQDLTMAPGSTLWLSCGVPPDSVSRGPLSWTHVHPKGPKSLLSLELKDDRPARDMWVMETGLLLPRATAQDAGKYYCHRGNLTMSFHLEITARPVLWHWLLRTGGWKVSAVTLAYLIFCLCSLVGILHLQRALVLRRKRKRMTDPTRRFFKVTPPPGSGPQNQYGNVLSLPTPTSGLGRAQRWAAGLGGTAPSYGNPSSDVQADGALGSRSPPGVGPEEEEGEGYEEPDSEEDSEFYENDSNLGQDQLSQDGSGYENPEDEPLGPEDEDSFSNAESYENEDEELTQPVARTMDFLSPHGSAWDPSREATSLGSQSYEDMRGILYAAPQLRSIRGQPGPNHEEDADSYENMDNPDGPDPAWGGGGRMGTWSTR
Assay: FACS on CHO-K1-human CD19 cells
Text: (§1) The desired cells were scale-up cultured in a T-75 cell culture flask to the logarithmic growth phase. For the adherent cell CHO-K1, the medium was aspirated, the cells were washed 2 times with a PBS buffer, and then digested with trypsin. After the digestion was terminated, the cells were washed 2 times with a PBS buffer; and for suspension cell Raji, the supernatant of the medium was discarded by directly centrifugation, and the cell pellet was washed 2 times with PBS. After counting the cells in the previous step, the cell pellet was resuspended with [PBS+2% (w/w) BSA] blocking solution to 2×10⁶ cells/ml, and added to a 96-well FACS reaction plate at 50 μl/well, and then the sample to be tested was added at 50 μl/well, and incubated on ice for 2 h. The obtained mixture was centrifuged and washed 3 times with a PBS buffer. […] The obtained mixture was centrifuged and washed 5 times with a PBS buffer, and FACS (FACS Canto™, purchased from BD Company) was used for detection and result analysis. Data analysis was performed by software (FlowJo) to obtain the mean fluorescence intensity (MFI) of the cells. And then software (GraphPad Prism8) was used for analysis, data fitting, and EC50 value calculation. […] The same method was used to detect the binding of the chimeric antibodies to endogenous CD19-negative cells, MoLT4 cells (purchased from ATCC, CRL-1582), and CHO-K1 cells.

| Binder | EC50 [nM] | Maximum mean fluorescence intensity |
| --- | --- | --- |
| B1 | 1.54 | 56200 |
| B2 | ~0.17 | 48300 |
| B3 | 0.84 | 48500 |
| B4 | 0.48 | 51800 |
| B5 | 1.24 | 49600 |
| B6 |  | 10300 |
| B7 | 0.17 | 20500 |
| B8 | 3.59 | 50400 |

Molecular target: T2, Human CD19-his protein (human, UniProt P15391 20-291)
T2 construct: bought protein; also called recombinant human CD19-His; CD19 full-length protein; not shown: His tag
T2 sequence (looked up): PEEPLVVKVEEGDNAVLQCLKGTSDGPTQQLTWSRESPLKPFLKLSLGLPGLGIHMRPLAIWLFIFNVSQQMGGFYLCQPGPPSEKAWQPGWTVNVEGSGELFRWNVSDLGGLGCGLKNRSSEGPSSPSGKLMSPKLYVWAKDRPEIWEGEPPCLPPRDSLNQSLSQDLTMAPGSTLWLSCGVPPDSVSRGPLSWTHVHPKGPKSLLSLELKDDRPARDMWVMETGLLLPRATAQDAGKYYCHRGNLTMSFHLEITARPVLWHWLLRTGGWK
Assay: SPR Biacore, Ab captured on Protein A, CD19-His analyte
Protocol: A sample buffer and a running buffer were HBS-EP+ (10 mM HEPES, 150 mM NaCl, 3 mM EDTA and 0.05% surfactant P20) (GE Healthcare; BR-1006-69). The flow-through cell was set to 25° C. The sample block was set to 16° C. Both were pretreated with the running buffer. In each cycle, an antibody to be detected was first captured with a Protein A chip, and then a single concentration of CD19 antigen protein was injected. The binding and dissociation processes of the antibody and the antigen protein were recorded, and finally Glycine pH 1.5 (GE Healthcare; BR-1003-54) was used to complete chip regeneration. The binding was measured by injecting different concentrations of recombinant human CD19-His proteins in a solution for 240 s with a flow rate of 30 μl/min. The concentration started from 200 nM (see the detailed results for the actual concentration in the test) and was diluted at 1:1, making a total of 5 concentrations. The dissociation phase was monitored for up to 600 s and was triggered by switching from sample solution to running buffer. The surface was regenerated by washing with a 10 mM glycine solution (pH 1.5) for 30 s at a flow rate of 30 μl/min. Bulk refractive index difference was corrected by subtracting the response obtained from the goat anti-human Fc surface. Blank injection was also subtracted (=double reference). For calculation of apparent KD and other kinetic parameters, Langmuir 1:1 model was used.

| Binder | Kd [nM] | koff [s⁻¹] | kon [M⁻¹ s⁻¹] |
| --- | --- | --- | --- |
| B9 | 1.68 | 6.15e-05 | 36600 |
| B10 | 5.24 | 0.000186 | 35400 |

Molecular target: T3, monkey CD19 on HEK293T-monkey CD19 cells (monkey)
T3 construct: whole, on cells
Assay: FACS on HEK293T-monkey CD19 cells
Protocol: as §1, with “After” for “The desired cells were scale-up cultured in a T-75 cell culture flask to the logarithmic growth phase. For the adherent cell CHO-K1, the medium was aspirated, the cells were washed 2 times with a PBS buffer, and then digested with trypsin. After”
HEK293T-monkey CD19 cells were subjected to FACS detection and data analysis according to the method in example 5.2. […] The same method was used to detect binding of the chimeric antibodies to HEK293T cells.

| Binder | Maximum mean fluorescence intensity | EC50 [nM] |
| --- | --- | --- |
| B1 | 938 |  |
| B2 | 531 |  |
| B3 | 108 |  |
| B4 | 4080 |  |
| B5 | 94 |  |
| B6 | 2130 | 86 |
| B7 | 14800 |  |
| B8 | 77 |  |

Molecular target: T4, human CD19 on Raji cells (human, UniProt P15391 20-556)
T4 construct: whole, on cells
T4 sequence (looked up): T1 sequence (looked up)
Assay: FACS on Raji cells
Text: as §1

| Binder | EC50 [nM] | Maximum mean fluorescence intensity |
| --- | --- | --- |
| B1 | 1.13 | 28700 |
| B2 | 0.17 | 28600 |
| B3 | 0.78 | 20000 |
| B4 | 0.51 | 27100 |
| B5 | 0.96 | 23700 |
| B6 | 0.98 | 21500 |
| B7 | 0.71 | 31300 |
| B8 | 4.77 | 14900 |
